Results from FireProtDB (doi:10.1021/bi00435a062).

B1: Tissue-type plasminogen activator, P00750 (parent)
chain: MDAMKRGLCCVLLLCGAVFVSPSQEIHARFRRGARSYQVICRDEKTQMIYQQHQSWLRPVLRSNRVEYCWCNSGRAQCHSVPVKSCSEPRCFNGGTCQQALYFSDFVCQCPEGFAGKCCEIDTRATCYEDQGISYRGTWSTAESGAECTNWNSSALAQKPYSGRRPDAIRLGLGNHNYCRNPDRDSKPWCYVFKAGKYSSEFCSTPACSEGNSDCYFGNGSAYRGTHSLTESGASCLPWNSMILIGKVYTAQNPSAQALGLGKHNYCRNPDGDAKPWCHVLKNRRLTWEYCDVPSCSTCGLRQYSQPQFRIKGGLFADIASHPWQAAIFAKHRRSPGERFLCGGILISSCWILSAAHCFQERFPPHHLTVILGRTYRVVPGEEEQKFEVEKYIVHKEFDDDTYDNDIALLQLKSDSSRCAQESSVVRTVCLPPADLQLPDWTECELSGYGKHEALSPFYSERLKEAHVRLYPSSRCTSQHLLNRTVTDNMLCAGDTRSGGPQANLHDACQGDSGGPLVCLNDGRMTLVGIISWGLGCGQKDVPGVYTKVTNYLDWIRDNMRP

Variants of: B1
Conditions: Homo sapiens, pH 4.5, Thermal, DSC, reversible: yes, structure 1TPK, whole UniProt chain shown
[1] = 64.3 °C, Citric acid trisodium citrate 0.1 M 0.1 M
[2] = Citric acid/trisodium citrate 0.1 M/0.1 M/

Variant	ddG of mutation (higher = less stable) [1] [kcal/mol]	heat capacity change of unfolding [1] [kcal/mol/K]	unfolding enthalpy (calorimetric) [1] [kcal/mol]	Tm [2] [°C]	change of melting temperature, mutant - wild type (higher = more stable) [2] [°C]	unfolding enthalpy (calorimetric) [2] [kcal/mol]
V280I	-0.3	0.9	67.5	64.8	0.5	67.5
V280A				55.5	-8.8	72.5
V280L	1.9	0.9		55.8	-8.5	70.1
V280M	2.2			54.4	-9.9	67.8
V280T	1	0.9		60	-4.3	75.1
V280S	2.4	0.9		52.9	-11.4	63.4
